Test results taken from paper PMC546129.

Columns and labels:
[1] = target: Gal4-DBD–Vnd, construct A2 (amino acids 3–613) (Drosophila) (UniProt P22808); test: two-hybrid
[2] = target: Gal4-DBD–Vnd, construct A1 (amino acids 3–717) (Drosophila) (UniProt P22808); test: two-hybrid

fold alleviation of repression (two-hybrid reporter) [1]: 3 to 3.5 fold | fold reduction of repression (two-hybrid reporter) [2]: 6 fold
Substance: VP16–Dichaete (pACT-Dichaete) (natural protein)
